Measurements from the supplement of paper PMC7125110.
± gives the standard error. This sample holds only a part of the variants without activity.

B1: glmS ribozyme (parent)
chain: AUAAAAGCGCCAGAACUACAGAAAUGUAGUUGACGAGGAGGAGGUUUAUCGAAUUUUCGGCGGAUGCCUCCAAA

Legend:
Conditions in all cases: with glucosamine-6-phosphate
[1] = variants of: B1; assay: self-cleavage kobs at 160 uM GlcN6P; higher = faster cleavage; RNA array
In short: (§1)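 Glucosamine-6-phosphate in HEPES/KCl/Mg(OAc)2 buffer, at 40 μM to 10 mM, was flowed over barcoded ribozyme variants transcribed in situ by E. coli RNA polymerase on sequenced MiSeq chips. Tracking was through a hybridised Cy3 probe at 37 °C. kobs, kcat and KM came from exponential decay fits and weighted Michaelis–Menten fits of normalised per-tile medians.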

[2] = variants of: B1; assay: self-cleavage kobs at 640 uM GlcN6P; higher = faster cleavage; RNA array
In short: as §1

[3] = variants of: B1; assay: self-cleavage kobs at 2500 uM GlcN6P; higher = faster cleavage; RNA array
In short: as §1

[4] = variants of: B1; assay: self-cleavage kobs at 10000 uM GlcN6P; higher = faster cleavage; RNA array
In short: as §1

## G13C A14G G32A
[1]
  self-cleavage kobs at 160 uM GlcN6P: 0.000606 ± 0.00018 s⁻¹
[2]
  self-cleavage kobs at 640 uM GlcN6P: 0.00264 ± 0.00054 s⁻¹
[3]
  self-cleavage kobs at 2500 uM GlcN6P: 0.00874 ± 0.0043 s⁻¹

## G7U A33C C67A C68U
[1]
  self-cleavage kobs at 160 uM GlcN6P: < 1e-05 s⁻¹
[3]
  self-cleavage kobs at 2500 uM GlcN6P: < 1e-05 s⁻¹

## G7C G32C G43U G60U
[1]
  self-cleavage kobs at 160 uM GlcN6P: < 1e-05 s⁻¹
[3]
  self-cleavage kobs at 2500 uM GlcN6P: < 1e-05 s⁻¹
[4]
  self-cleavage kobs at 10000 uM GlcN6P: < 1e-05 s⁻¹

## G7U U46A C50G G60A U65G U69A
[1]
  self-cleavage kobs at 160 uM GlcN6P: 0.000502 ± 0.00021 s⁻¹

## C11U A15G G44U G60U
[1]
  self-cleavage kobs at 160 uM GlcN6P: < 1e-05 s⁻¹
[2]
  self-cleavage kobs at 640 uM GlcN6P: < 1e-05 s⁻¹
[3]
  self-cleavage kobs at 2500 uM GlcN6P: < 1e-05 s⁻¹

## C11G G32A G59C
[1]
  self-cleavage kobs at 160 uM GlcN6P: < 1e-05 s⁻¹
[2]
  self-cleavage kobs at 640 uM GlcN6P: < 1e-05 s⁻¹

## G7A G59U C70A
[1]
  self-cleavage kobs at 160 uM GlcN6P: < 1e-05 s⁻¹
[3]
  self-cleavage kobs at 2500 uM GlcN6P: < 1e-05 s⁻¹

## U45G G66A
[1]
  self-cleavage kobs at 160 uM GlcN6P: 0.0029 ± 0.00042 s⁻¹
[2]
  self-cleavage kobs at 640 uM GlcN6P: 0.00605 ± 0.0014 s⁻¹
[3]
  self-cleavage kobs at 2500 uM GlcN6P: 0.0257 ± 0.0093 s⁻¹

## C34G A53U C68U
[1]
  self-cleavage kobs at 160 uM GlcN6P: < 1e-05 s⁻¹
[3]
  self-cleavage kobs at 2500 uM GlcN6P: < 1e-05 s⁻¹

## C16A A52U
[1]
  self-cleavage kobs at 160 uM GlcN6P: < 1e-05 s⁻¹
[4]
  self-cleavage kobs at 10000 uM GlcN6P: 3.13e-05 ± 8.8e-06 s⁻¹

## A14G A39G U69A
[1]
  self-cleavage kobs at 160 uM GlcN6P: 0.000285 ± 7.7e-05 s⁻¹
[2]
  self-cleavage kobs at 640 uM GlcN6P: 0.000936 ± 0.00031 s⁻¹
[3]
  self-cleavage kobs at 2500 uM GlcN6P: 0.000786 ± 0.00024 s⁻¹

## G9C C34A
[1]
  self-cleavage kobs at 160 uM GlcN6P: < 1e-05 s⁻¹
[2]
  self-cleavage kobs at 640 uM GlcN6P: < 1e-05 s⁻¹
[3]
  self-cleavage kobs at 2500 uM GlcN6P: < 1e-05 s⁻¹

## A6C G7A
[1]
  self-cleavage kobs at 160 uM GlcN6P: < 1e-05 s⁻¹
[2]
  self-cleavage kobs at 640 uM GlcN6P: < 1e-05 s⁻¹

## G35U G37C
[1]
  self-cleavage kobs at 160 uM GlcN6P: < 1e-05 s⁻¹
[2]
  self-cleavage kobs at 640 uM GlcN6P: < 1e-05 s⁻¹
[3]
  self-cleavage kobs at 2500 uM GlcN6P: < 1e-05 s⁻¹

## A6U U45C
[1]
  self-cleavage kobs at 160 uM GlcN6P: < 1e-05 s⁻¹
[2]
  self-cleavage kobs at 640 uM GlcN6P: < 1e-05 s⁻¹

## A12C G59U
[1]
  self-cleavage kobs at 160 uM GlcN6P: < 1e-05 s⁻¹
[3]
  self-cleavage kobs at 2500 uM GlcN6P: < 1e-05 s⁻¹
[4]
  self-cleavage kobs at 10000 uM GlcN6P: < 1e-05 s⁻¹

## G9C G44U
[1]
  self-cleavage kobs at 160 uM GlcN6P: < 1e-05 s⁻¹
[2]
  self-cleavage kobs at 640 uM GlcN6P: < 1e-05 s⁻¹
[3]
  self-cleavage kobs at 2500 uM GlcN6P: < 1e-05 s⁻¹
[4]
  self-cleavage kobs at 10000 uM GlcN6P: < 1e-05 s⁻¹

## A6C G37C U65A
[1]
  self-cleavage kobs at 160 uM GlcN6P: < 1e-05 s⁻¹
[2]
  self-cleavage kobs at 640 uM GlcN6P: < 1e-05 s⁻¹
[3]
  self-cleavage kobs at 2500 uM GlcN6P: < 1e-05 s⁻¹

## A12C G41C U49A
[1]
  self-cleavage kobs at 160 uM GlcN6P: < 1e-05 s⁻¹
[2]
  self-cleavage kobs at 640 uM GlcN6P: < 1e-05 s⁻¹
[3]
  self-cleavage kobs at 2500 uM GlcN6P: < 1e-05 s⁻¹

## G9U C34G G40C A48U C61U
[1]
  self-cleavage kobs at 160 uM GlcN6P: < 1e-05 s⁻¹

## C16G A33C C71U
[1]
  self-cleavage kobs at 160 uM GlcN6P: < 1e-05 s⁻¹
[2]
  self-cleavage kobs at 640 uM GlcN6P: < 1e-05 s⁻¹
[3]
  self-cleavage kobs at 2500 uM GlcN6P: < 1e-05 s⁻¹

## C50A G63A
[1]
  self-cleavage kobs at 160 uM GlcN6P: < 1e-05 s⁻¹
[4]
  self-cleavage kobs at 10000 uM GlcN6P: < 1e-05 s⁻¹

## C10G U55A
[1]
  self-cleavage kobs at 160 uM GlcN6P: < 1e-05 s⁻¹
[2]
  self-cleavage kobs at 640 uM GlcN6P: < 1e-05 s⁻¹

## A14U U30A C50G C58G
[1]
  self-cleavage kobs at 160 uM GlcN6P: 0.000116 ± 2.1e-05 s⁻¹
[2]
  self-cleavage kobs at 640 uM GlcN6P: 9.41e-05 ± 1.7e-05 s⁻¹
[3]
  self-cleavage kobs at 2500 uM GlcN6P: 0.000131 ± 2.3e-05 s⁻¹
